According to a protein production outcome set (Wang et al. 2014):

Test: label from the status in PepcDB records
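Further: failed if final PepcDB status was selected cloned or expressed and not failed if soluble or beyond.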

**Q.** Which protein production does the source give for “SPEHGQAGRKIGEEGIVLLQNKDNVLPIDLKKARKIAVIGENAIKMMTVGGGSSSLKVKYEISPLDGLKNRVGSQAEVLYVRGYVGDPTGEYNGVQTGQDLKDDRSEDELLAEAVEVSKDADYVIFFGGLNKSNHQDCEDSDRASLGLPYAQDRVIGELAKVNKNLIVVNISGNAVAMPWVNEVPAIVQGWFLGSEAGTALASVLLGDANPSGKLPFTFPARLEDVGAHKLGEYPGNKEELAHSKNNGDTINEIYREDIFVGYRWADKEKIKPLFPFGHGLSYTTF” here?
**A.** Its protein production is “failed”.

**Q.** Which protein production does the source give for “MAAYGLYTHIASNKLRSMLLLAGLFALVYVLVYAGALVAEVVINGNETVAFYLSHAFLDLKVAAPVATVVTAVWVVIAYFFHQSMIDAVTGGHDVTRKEEPRLYNLLENLCISRGITMPKLKIMESPALNAFATGLNPRQYSITVTTGLLNALNDKEIEAVLGHELTHIKNGDVQLMVVAVIIAGVVGFFGELFFRLFTNLSWNSGGSWSSGSSSSRSSSSSSDSKNSGGGAVIVIIIAVVLIVVAWLMSQVVKLALSRSREYLADAGSVELTKDPDAMISALRKIENRGELPGATSAVMELCVDNPREGFADLFATHPSVQSRVDALVKFAGGHDPGPLPDPTDETEQPEAQGAPQDAPPPLSQRPWGDAAGPANPPPVPAPSPSGTTAGNPIGNPMGPWGRH” here?
**A.** The protein production was “failed”.

**Q.** With “MKETRGYGGDAPFCTRLNHSYTGMWAPERSAEARGNLTRPPGSGEDCGSVSVAFPITMLLTGFVGNALAMLLVSRSYRRRESKRKKSFLLCIGWLALTDLVGQLLTTPVVIVVYLSKQRWEHIDPSGRLCTFFGLTMTVFGLSSLFIASAMAVERALAIRAPHWYASHMKTRATRAVLLGVWLAVLAFALLPVLGVGQYTVQWPGTWCFISTGRGGNGTSSSHNWGNLFFASAFAFLGLLALTVTFSCNLATIKALVSRCRAKATASQSSAQWGRITTETAIQLMGIMCVLSVCWSPLLIMMLKMIFNQTSVEHCKTHTEKQKECNFFLIAVRLASLNQILDPWVYLLLRKILLRKFCQENPAVSS” as the sequence, how does the protein production read?
**A.** The protein production was “failed”.

**Q.** With “MACNTCKMCESADKKLESFVASKDVETAFHRTEDQKVKCGFGLQGVCCRLCSNGPCRVTPKSPRGICGADADTIVARNFLRAVASGAACYLHVVENTAKNLKNVGITKGVVKGEKTLNQLAEMFGIESDEKYDKCIKVADKVINDLYKSRDDKMELVEKIAYAPRVKKWKELGIMPGGAKSEVFDAIVKSSTNLNSDPVDMLVNCLNLGISTGLYGLTLTNLLNDVMLGEPVIRMAPVGFNVIDPDYINIMITGHQHSTFANFQDRLKDEDVIKLAQSVGAKGFKLVGCTCVGQDLQLRGEHYQEVFAGHAGNNFTSEAVLSTGAIDIVLSEFNCTIPGLEPIADKYKVKMVCLDDVAKKANAEYIGLDRSKLDELSNTLIEKALESYKERRGSIEIDIPKDHGFEQSLTGVSEKNLKAFLGDSWKPLINLIAEGKIKGVAAVVGCSNMTAGGHDVNTVELTKELIKKDIIVLSAGCSTGGLENVGLMSPGAEELAGENLKEVCKTLGIPPVLNFGPCLAIGRLEIVATELAAELGIDLPQLPLVLSAPQWLEEQALADGAFGLALGLPLHLALPPFITGGKLVTEVLTEKLKDLTGGHVIVNPDPKSSANQLEEIIIDRRKNLGLKDVECNA” as the sequence, how does the protein production read?
**A.** Its protein production is “failed”.

**Q.** Which protein production does the source give for “LKPERVITKNSGASLIDLGDDVALLEFHSPNNSIGFDVVQMINKAVDEVEANYKGLVIGNQGKNFCVGANLMMILMEAQDDNFFEIDMVVRQFQQAMAKIRYSQKPVVSAPFAMTLGGGTEICLPTASIQASLETYMGLVEVGVGVIPGGGGNKELYLRHLERLPEGANIDLQSIANKTFETIAMAKVSTSAHEAMENGFLSERDGVVVNGDHLLYQAKQQVIHLHDAG” here?
**A.** Its protein production is “failed”.

**Q.** For “MELAVGNLSEGNASCPEPPAPEPGPLFGIGVENFVTLVVFGLIFALGVLGNSLVITVLARSKPGKPRSTTNLFILNLSIADLAYLLFCIPFQATVYALPTWVLGAFICKFIHYFFTVSMLVSIFTLAAMSVDRYVAIVHSRRSSSLRVSRNALLGVGCIWALSIAMASPVAYHQGLFHPRASNQTFCWEQWPDPRHKKAYVVCTFVFGYLLPLLLICFCYAKVLNHLHKKLKNMSKKSEASKKKTAQTVLVVVVVFGISWLPHHIIHLWAEFGVFPLTPASFLFRITAHCLAYSNSSVNPIIYAFLSENFRKAYKQVFKCHIRKDSHLSDTKENKSRIDTPPSTNCTHV”, which protein production is on record?
**A.** Its protein production is “failed”.

**Q.** For “MGMHGAAHIVWDWNGTLFHDNAAIIGATNAAFAELGLEPITLERYRALYCVPVPKFYERLIGRLPTDAEWEIMDEIFHRYYAEHRVGCGLTEGAAELLVEWQSAGHSQSILSMYVHDELVPLVRGFGIEPHFIRVDGRTGPSGGSKAEHMVRHIGALAGVAGVDPARTVVIGDAADDAVAALHVGAQAVLYTGGSHSRASLEGVGVPVVDTLAEAVEEAGRLAA”, which protein production is on record?
**A.** The protein production was “failed”.

**Q.** Which protein production does the source give for “MGTVHARSLDPLPMNGPDFGSPDDADLVEVEPQKKQEILENKDVVVQRVHFEGLGRTKDDLVAHEIGQVFKAKNLIEVMRKSHEAREKLLRLGVFRNVEVLIDTCEGEDAVPNGLDVTFEVTELRRVTGSYNTMVGNNEGSMVLGLKLPNLFGRAEKMTFQFSYGTKETSYGLSFFKPQVGNFERNFSVNLYKVTGQFPWSSLRETDRGVSAEINFPIWKTSHTLKWEGVWRELGCLARTASFTIREESGHTLKSSLSHSMVIDSRNASILPKSGALLKINQELAGYTGGDVSFLKEDFELQLNRQLTWDSVLSTSLWGGMLVPIGDRPSSIADRFYLGGPTSVRGFSMYSIGPQSEGDYLGGEAYWAGGVHLYTPLPFRPGRGGFGDLFRTHFFLNAGNLCNLNYGEGPGAHLRRLAECIRWSYGAGLVLRLGNIARLELNYCIPMGVQSGDRICDGVQFGAGIRFL” here?
**A.** The protein production was “failed”.

**Q.** With “MASKPVDVMVVNFNTAGLLQPMFDALRRADSERLASYLVVDNASRDDSVQRMAQVCPEALLLSNKQNVGFGRANNQLLAHLKGKYALLLNTDAFVAADSLQKTLDYMDAHPECGVLGVRLEGRDGDLQPSCRYFPTPLNVFVGRTGLGRFFPGVKMVDDMNWDHASVRECDWLPGCFYLVRREVLDKVGLFDPRYFLYYEEVDHCKRVKEAGWKVVFYPHTTVVHIGGESSKSVAELEAASRQISSYQIESELLYFRKHHGVAGLALHMLLVTLGDLVLALKALLKRRGWGAIQACWRHCRATWSLLFKTRYASQPTR” as the sequence, how does the protein production read?
**A.** Its protein production is “failed”.

**Q.** For “MKKRILSAVLVSGVTLSAAASVHAEDYDSQIAATNNAISNLASQQEAAQAQVATIQSQVSTLRTQKTELEAKNAELEKVSADLESEIQELSSKIVARQDSLAKQARSAQQNNTATSYINSILNSKSISEAITRITAISKVVTANNDLLTKQESDQKELAAKQEENQAAINTIAANKSELETTEAGLTTQQAELEAAQVTLAAELATAQNEKTSLVSAKSTAESVAASTAASVAQSQAIAESEATAQVVASSEAATSVASSEVAATSEAVAQPSETPVSETSTASEAAQEPASSETSEVQPESAAPAVSEAPASVAPVATSEAAPATSEAPASVAPVATSEAAPAVSEAPAPAAETHKVSAASTPNTYPVGQCTWGVKSLAPWAGNNWGNAKNWIASAQAAGHSVGTTPVAGAIAVWPNDGGGYGHVAYVTSASGANSIQVMESNYAGNMSISNYRGTFDPTSSAHGGSVFYIYPLEHHHHHH”, which protein production is on record?
**A.** The protein production was “not failed”.

**Q.** For “DSVDKTMHIGRQLGSLVNKGDILCLTGDLGTGKTHISKGIAEGLGIDEHITSPTFNIVNEYHSGRLTLYHFDVYRVNDPDEIEAIGFDEYIFGDGVSLIEWANYIEELIPEEYIHIKIEKLPDMGENFRKITINGYGDRYNYIKEIKE”, which protein production is on record?
**A.** The protein production was “failed”.

**Q.** With “MIMLNKQGITISLCMIVRDEEETIARCLETVEKIVDEIIVVDTGSVDRTKEIVEKYTSNIYDFQWIDDFAAARNFSFSKATQEYILWLDADDVLLEDAQEALKLLKRELDPKIDAVSMPYHLAMDSNGKPLYCTKRNRLVKREKQFQWFGKVHEYLAISGEVFSSNVAITHKKEKKVTNRNLKIFQNTVAAGEELSPRDLFYYANESTDNQKYDDAVLLYETFLNQDEGWYEEKIYACGKLGDCYAKLGMWEKAIESCVKSFRYDVPRGENCTRIGYIYMEQEKYNEAIFWFKLATEVPMATESPFHSPASYTWLPYLQMCICYSRLGEQDKAYYYNELAASYVPNNAAIEYNRKYFRGVFDKPYKVLEHHHHHH” as the sequence, how does the protein production read?
**A.** The protein production was “failed”.

**Q.** For “MATPSGIVRFPGAGCVVEFMQGNRPQIAWVMEEQGGRLRLFLPNRRETKLAAARLLPWAGPRYDGERSRDDMVALLEEHRQRRDTREADIQPLELWEMVQGEVEQASVEWFAELLGETPGVDEVAAMGRALLGCKTHFKFHPPDFEVYDAAKVEARMVEMEAARVREALVEAGQAFIKVLWDVHCRRRTMPLPSSSEMPPAEVAERLATLLRTRMADPDDHDSDSVWKQVTKGLPDDAHMPLHLAAAWGIVPVHHNFWMDRAGYAPGDEWAIDHVDEIDALMKRVEALREPLVDGTFISIDSSTTRDIDDAFDISPSPEGGWILRLVLASPVTGWDFDGPLDRAVLRRATSIYLPERSHHMMPETLGTDAYSLLAGQDRPALLVTFDIAPDGSLRSTTPATGWVRLAANLTYTECEACLTGEGDAGRAAPHADRLALADALARVRQQLRVAAGAVIIERDDPKVTLEGEGCAVKVHVAPPDETPRAQLLVSEMMILANAAIASWGAERGITLLHRTQDVGIPREYAGVWNQPHDIARVVKALAPAHLEPVAKPHAGIAVPAYSPVTSPLRRYPDLVNEAQVIHYLTHGTPRWSREEVEAMLPLLGARLDAAGQVQRFRPRYWKLFYIRQQGDKAWHEAVVTEENDAFVTISLPEVQIFVRGRRSTFGDKVYPGQHFNVRLGKVHPLNNEIQIVDAMEG”, which protein production is on record?
**A.** The protein production was “failed”.

**Q.** With “MKKRILSAVLVSGVTLGTAAVTVNADDFDSKIAATDSVINTLSGQQAAAQNQVTAIKGQVGALESQQSELEAQNAQLEAVSQQLGQEIQTLSNKIVARNESLKKQVRSAQKGNLTNYINTILNSKSVSDAVNRVVAIREVVSANEKMLAQQEADKAALEAKQIENQNAINTVAANKQAIENNKAALATQRAQLEAAQLELSAQLTTVQNEKASLIQAKAQAEEAARKAAEAQAAAEAKAQAEAKAQAESVAKAQAAAQVESATAPTETVQTQPRTEIKPSNLTATSSATTVATTTATATNEPKVTQPSVVTKAVEAPKAVVSSTPRAVSKPVVRSYDSSNTYPMGQCTWGAKSMASWVGNYWGNANQWGASARAAGYSVGTTPRVGAVAVWPYDGGGYGHVAVVTSVANNSSIQVMESNYAGNMSIGNYRGSFNPSASGSVYYIYPN” as the sequence, how does the protein production read?
**A.** The protein production was “failed”.

**Q.** For “MITNQRIARLNAWGAHGFTATGVVLAFLATIALFNNEPKACLLWLGAALIVDGVDGSLARKVNTTSVLPHFDGSVLDLVIDYLTYVFIPALFIYRYIPVPDYTLLLSVSVILVSSLFCFCNVDMKSKDNYFQGFPAAWNVVALCLYILSPAPWLTFITIIALALLTMTRMKFLHPFRVRRFMPLNIAVTTVWLLASALLIINHPHNGPLVMGLWLAMSAYFLGICIWRTSLEWLGRLKA”, which protein production is on record?
**A.** Its protein production is “failed”.

**Q.** Which protein production does the source give for “RAAASPITITVGDRALELSVLRPAAPKGVVVFSHGAGGTAEAYATLLEGWRQAGFLVVAPLHVDSQKHPRKTAYNLRSSFPLRIADVGAAAGWAAAAAPGLPLAYAGHSYGSLMSLMRGGALEGMIPARDPNAKAVLCFSSPGTIQGLMGPATFQTLTTPTMVLTGELDLVPGMVADWRDHLRAVEESPAGEKYAWIGKSVDHGLAHHPDNPAFAEASALSVTFLKAQLLGD” here?
**A.** The protein production was “failed”.

**Q.** With “MVGSVYTLFLYFSIILGVIVGVRTRSFHSSLAVLVFSSTFVAGIKYNNSYIAIISWLALSTLSSYLFHLNVIIKSRKDESVSNVLMGYLLGFFILLTLKLHGAGWILSILASYWVFYILLMFDYSKNRRAYYLLKTLWIIFSWGALIEAFGLQKELLPFLVVYTLIFILWFKRQEYSPT” as the sequence, how does the protein production read?
**A.** The protein production was “failed”.

**Q.** With “MKRLEVSNQAKLPTQFGEFYIQCFREKGSNGSKDHLVVFTPNFSQNPLVRLHSECLTGDALGSQKCDCGGALQMALERISKEGGLVIYLRQEGRGIGLFNKVNAYALQDKGYDTIQANEMIGFKDDERDYSVAGEILEYYRIKKMRLLTNNPKKIAALEKYAEVTRESLIVCANEHNQGYLEVKKLKMGHLL” as the sequence, how does the protein production read?
**A.** The protein production was “failed”.

**Q.** With “MSYERPLLAPLRAALSRPTPVVHVLIGPRQVGKTTITRQIQESIGISSIYATADSLVPLDSAWIETQWRRAVAEEAASGGPEIRVLILGSSALLMQQGLTESLAGRFFLHRCTHWGYPALEHHHHHH” as the sequence, how does the protein production read?
**A.** Its protein production is “failed”.
